# According to patent publication US20250263490A1 (VIB VZW, published 2025):
# T1: L197D
# T1 construct: also called human CI-M6PR Dom1-3His6 L197D
# T1 chain: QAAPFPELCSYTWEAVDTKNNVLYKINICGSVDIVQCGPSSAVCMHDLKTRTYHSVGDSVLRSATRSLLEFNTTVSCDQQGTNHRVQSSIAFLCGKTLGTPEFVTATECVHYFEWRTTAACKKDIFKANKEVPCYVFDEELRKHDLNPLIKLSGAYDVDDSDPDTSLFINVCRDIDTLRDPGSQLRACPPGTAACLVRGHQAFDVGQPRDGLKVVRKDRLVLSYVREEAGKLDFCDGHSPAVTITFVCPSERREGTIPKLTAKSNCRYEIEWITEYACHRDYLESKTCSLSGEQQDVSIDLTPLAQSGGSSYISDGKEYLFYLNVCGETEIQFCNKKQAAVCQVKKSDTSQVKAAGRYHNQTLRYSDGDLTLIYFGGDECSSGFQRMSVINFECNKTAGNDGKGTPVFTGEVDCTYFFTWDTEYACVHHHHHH
# T2: D409F
# T2 construct: also called human CI-M6PR Dom1-3His6 D409F
# T2 chain: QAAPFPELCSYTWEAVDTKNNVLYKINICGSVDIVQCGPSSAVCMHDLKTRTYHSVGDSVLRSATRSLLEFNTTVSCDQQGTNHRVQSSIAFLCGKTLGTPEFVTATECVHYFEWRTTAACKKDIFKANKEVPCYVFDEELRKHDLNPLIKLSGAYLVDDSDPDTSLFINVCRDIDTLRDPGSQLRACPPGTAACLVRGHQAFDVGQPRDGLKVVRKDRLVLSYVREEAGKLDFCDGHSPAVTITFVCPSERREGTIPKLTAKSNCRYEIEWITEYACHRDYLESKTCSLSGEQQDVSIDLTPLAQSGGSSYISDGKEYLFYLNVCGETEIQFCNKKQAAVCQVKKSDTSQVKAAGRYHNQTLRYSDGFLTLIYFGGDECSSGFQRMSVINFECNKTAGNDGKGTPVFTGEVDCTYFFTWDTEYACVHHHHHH
# T3: E433R
# T3 construct: also called human CI-M6PR Dom1-3His6 E433R
# T3 chain: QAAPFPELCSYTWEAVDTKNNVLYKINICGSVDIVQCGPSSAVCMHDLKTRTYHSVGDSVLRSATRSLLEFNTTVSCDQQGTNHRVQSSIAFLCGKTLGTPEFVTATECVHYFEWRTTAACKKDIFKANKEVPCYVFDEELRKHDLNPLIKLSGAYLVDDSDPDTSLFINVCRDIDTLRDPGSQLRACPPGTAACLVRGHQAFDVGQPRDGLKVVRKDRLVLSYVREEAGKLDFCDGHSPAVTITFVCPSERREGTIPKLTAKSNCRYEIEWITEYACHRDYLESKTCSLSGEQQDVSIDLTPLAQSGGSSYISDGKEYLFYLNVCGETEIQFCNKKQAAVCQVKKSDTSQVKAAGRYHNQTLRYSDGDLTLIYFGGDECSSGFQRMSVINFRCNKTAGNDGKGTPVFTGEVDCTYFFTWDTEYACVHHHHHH
# T4: E148R
# T4 construct: also called human CI-M6PR Dom1-3His6 E148F
# T4 chain: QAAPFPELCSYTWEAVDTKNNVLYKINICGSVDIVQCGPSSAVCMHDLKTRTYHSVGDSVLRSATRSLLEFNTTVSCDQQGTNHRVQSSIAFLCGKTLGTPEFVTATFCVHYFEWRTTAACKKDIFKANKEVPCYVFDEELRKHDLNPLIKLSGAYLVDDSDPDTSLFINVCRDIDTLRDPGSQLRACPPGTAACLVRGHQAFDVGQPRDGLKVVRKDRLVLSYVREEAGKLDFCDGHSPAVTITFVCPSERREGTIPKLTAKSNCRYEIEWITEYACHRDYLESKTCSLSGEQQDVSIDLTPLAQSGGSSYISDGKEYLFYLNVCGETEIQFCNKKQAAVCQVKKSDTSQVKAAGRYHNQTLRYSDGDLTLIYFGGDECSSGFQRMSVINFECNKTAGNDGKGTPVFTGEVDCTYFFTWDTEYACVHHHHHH
# Experiments:
# [1] = target: human cation-independent mannose-6-phosphate receptor, native, on cells (human, UniProt P11717 41-2491); test: cell-based or functional assay
# [2] = target: T5, recombinant human domain 1-3His6 of the cation-independent mannose-6-phosphate receptor (human, UniProt P11717 41-467); test: BLI exp 2, dissoc pH 6.5
# T5 construct: Biotinylated (NHS-PEG4-biotin) for BLI; Glycosylated; also called hDom1-3His6; hCI-M6PRD1-D3
# L197D = target: T1, L197D; test: ELISA on coated antigen (100 ng), anti-VHH-HRP, A450
# Method: (§1) To determine the effect of site-directed mutations, an ELISA was performed. To this end, 100 ng of each successfully purified mutant was coated per well on Nunc Maxisorp plates in 50 mM MES, 150 mM NaCl, pH 6.5 buffer overnight at 4° C. […] Coating-only controls were included for background correction. […] Reactions were stopped after five minutes using a 2N H₂SO₄ solution and plates were read at 450 nm, with a 655 nm background correction. Data were analyzed using the GraphPad Prism 9 software.
# D409F = target: T2, D409F; test: as above
# Method: as §1
# E433R = target: T3, E433R; test: as above
# Method: as §1
# [3] = target: T5, recombinant human domain 1-3His6 of the …; test: as above
# Method: as §1
# E148R = target: T4, E148R; test: ELISA on coated antigen (100 ng; labelled E148R on the sheet, E148F in the text), anti-VHH-HRP, A450
# Method: as §1
internalisation rate (live-cell imaging of AF488-VHH on MCF7 cells) [1] [summed AF-voxels/minute],koff [2] [s⁻¹],kon [2] [M⁻¹ s⁻¹],EC50 (read off the curve) (L197D) [nM],EC50 (read off the curve) (D409F) [nM],EC50 (read off the curve) (E433R) [nM],EC50 (read off the curve) [3] [nM],EC50 (read off the curve) (E148R) [nM],Binder
673000,0.0007,1.2e+06,~20,~5,~3,~3,~3,"anti-CI-M6PR VHH8 (VHH, His6-tagged (Pichia pastoris)) VHH: QVQLQESGGGLVQAGGSLRLSCEASGRTFNTYNWGWFRQAPGKEREFVAAIRWSSSKTSYADSVKGRFTISRDNAKNTIYLQMNSLKPEDTAVYYCAASIVDFTTNPSHFGSWGQGTQVTVSS"
1.38e+06,0.011,1.1e+06,–,–,–,~10,–,"anti-CI-M6PR VHH1 (VHH, His6-tagged; made in Pichia pastoris, later also in E. coli WK6) VHH: QVQLQESGGGLVQPGGSLRLSCVASGFTFDRYWMNWLRQIPGKEIEWVSTINTGGTGTYYDDSVKGRFSISRDDAKNTLYLTMNSLKTEDTAVYYCARGATYYRGNSAIRGQGTQVTVSS"
1.26e+06,0.02,430000,–,–,–,~0.3,–,"anti-CI-M6PR VHH7 (VHH, His6-tagged (Pichia pastoris)) VHH: QVQLQESGGGLVQPGGSLRLSCAASGIIFSDNRMDWYRQAPGKQREWVATLASYGWKTYADSVKGRFTISRDNTKNTVYLRMNSLKPEDTAVYYCKASSPVLNDIWGQGTQVTVSS"
–,–,–,~0.4,~0.4,~0.4,~0.4,~9,"anti-CI-M6PR VHH 1H11 (VHH, made in E. coli WK6, His-tag purified) VHH: QVQLQESGGGLVQPGGSLRLSCAASGIIFSDNRMDWYRQAPGKQREWVATLASYGWKTYADSVKDRFTISRDNAKNTVNLYMNSLQPEDTAVYYCNSGQYWGQGTQVTVSS"
687000,–,–,~4,~4,~3,~2,~2,"anti-CI-M6PR VHH5 (VHH, His6-tagged; made in Pichia pastoris, later also in E. coli WK6) VHH: QVQLQESGGGLVQAGGSLKLSCAAAGRTFSRLAMGWFRQAPGKEREFVAAISENGDSIHYSDSVKGRFAVSRDNAKNTVYLQMNSLKPEDTAIYYCAADRAAYYCSGSGCYPSRAPAAASYDYWGQGTQVTVSS"
